The values below come from PMC7467569, “The Progesterone 5β-Reductase/Iridoid Synthase Family: A Catalytic Reservoir for Specialized Metabolism across Land Plants” (ACS Chemical Biology, 2020).

Test in all cases: purified protein
Substrate in data set [1]: CC(=O)[C@H]1CC[C@H]2[C@@H]3CCC4=CC(=O)CC[C@]4(C)[C@H]3CC[C@]12C
As to conditions: 250 μM NADPH, 50 mM HEPES/NaOH pH 7.0, 100 mM NaCl, 25 °C, 1.5% ethanol.

Substrate in data set [2]: C/C(C=O)=C\CC/C(C)=C/C=O
Type of data set: biochemical, Catharanthus roseus. As to conditions: 250 μM NADPH, 50 mM HEPES/NaOH pH 7.0, 100 mM NaCl, 25 °C, 0.1% tetrahydrofuran.

Substrate in data set [3]: CC(=O)[C@H]1CC[C@H]2[C@@H]3CCC4=CC(=O)CC[C@]4(C)[C@H]3CC[C@]12C
Type of data set: biochemical, Coccomyxa subellipsoidea. To be noted: 250 μM NADPH, 50 mM HEPES/NaOH pH 7.0, 100 mM NaCl, 25 °C, 1.5% ethanol.

Substrate in data set [4]: C/C(C=O)=C\CC/C(C)=C/C=O
It counts as biochemical, Coccomyxa subellipsoidea. To be noted: 250 μM NADPH, 50 mM HEPES/NaOH pH 7.0, 100 mM NaCl, 25 °C, 0.1% tetrahydrofuran.

Substrate in data set [5]: C/C(C=O)=C\CC/C(C)=C/C=O
As to conditions: 250 μM NADPH, 50 mM HEPES/NaOH pH 7.0, 100 mM NaCl, 25 °C, 0.1% tetrahydrofuran.

B1: Arabidopsis thaliana 2 (PRISE2) (Arabidopsis thaliana) (protein)
chain: GSENGSLMRRNEVDENVALIFGVTGLVGREIVKTLLMSKPGWRIYGVARNPEINSMTKMYNFISCDLLNASETKQRLSPLQDIVSHVFWVTWSGEFPLDTDECCVQNKTMLMNALDAILPNAKRLKHFSLQTGMKHYVSLVEETMARGEGSSLYYYSEECPRKSSGKNFYYVLEDLLKEKITRSSVVWSVQRPGLLMGSSSRTLYNFMGSLCVYGAMCKYLNLPFVFGGTRECWEESYIDGSDSNLVAEQHIFAATSGKVREKGEAFNAINGVGFTWKEIWPEIGKKLGVQVNETTMFDEGFWFGREMVERKHVWDEIVVKEKLVRTEIEDLANWYFLDALFRCPFKLLGKREKVDRFGFKRKYRTLDSVLYWIDVMRDEKLIPL
B1: in “purified protein [1]”, the Michaelis constant (Km) was found to be 5.7 ± 2.3 µM.

B2: Catharanthus roseus 5 (PRISE5, ISY) (Catharanthus roseus) (protein)
chain: MSWWWKRSIGAGKNLPNQNKENGVCKSYKSVALVVGVTGIVGSSLAEVLKLPDTPGGPWKVYGVARRPCPVWLAKKPVEYIQCDVSDNQETISKLSPLKDITHIFYVSWIGSEDCQTNATMFKNILNSVIPNASNLQHVCLQTGIKHYFGIFEEGSKVVPHDSPFTEDLPRLNVPNFYHDLEDILYEETGKNNLTWSVHRPALVFGFSPCSMMNIVSTLCVYATICKHENKALVYPGSKNSWNCYADAVDADLVAEHEIWAAVDPKAKNQVLNCNNGDVFKWKHIWKKLAEEFGIEMVGYVEGKEQVSLAELMKDKDQVWDEIVKKNNLVPTKLKEIAAFWFADIAFCSENLISSMNKSKELGFLGFRNSMKSFVSCIDKMRDYRFIP
notes: codon-optimized gene from earlier study in pOPINF, N-terminal His6 tag (no cleavage told), E. coli
B2: in the data set “purified protein [2]”, the Km turned out to be 8.5 ± 1.5 µM.

B3: Coccomyxa subellipsoidea PRISE (Coccomyxa subellipsoidea C-169) (protein)
chain: GYVALIAGVTGVTGRNLALHLQNCDRWDAVYGGSRRPCGLGGKVKDLRMDLDNKTSLVDTLKGAQDVTHLFFCAYRPTESAATDVTTNFGMFKNVIEAGEGAGLKLKHVSFLSGTKWYGVHIGPVKTPSREDDPRAMSPNFYYDMEDYCIARVTKGADWTWSSVRPNPVCGFSTGSAMNLTMTIAVYASICKELGLPFRFPGSPQAYNVLLEVVDADLLACSMEYISTQPHAGNTSYNVSNGDVFRWSEVWPKLAAFFELPLAEPQKFSMTTMLAYHECVWQKLVEKHGLSKEVASYKDVATWGFGDWVFGQEKDWFSDVNKLRRTGFQEQNLDSAEMFLRQFKELRAAKLIP
notes: full-length synthetic gene in pOPINF, N-terminal His6 tag (no cleavage told), E. coli
Turning to B3, the Km in the data set “purified protein [3]” was found to be 23.6 ± 5.8 µM. Further, in the data set “purified protein [4]”, the Michaelis constant (Km) is 7.0 ± 1.6 µM, the turnover number (kcat) was found to be 0.025 ± 0.001 s⁻¹ and the kcat/Km was found to be 3580 M⁻¹ s⁻¹.

B4: Arabidopsis thaliana 1 (PRISE1) (Arabidopsis thaliana) (protein)
chain: SWWWAGAIGAAKKKLDEDEPSQSFESVALIIGVTGIVGNSLAEILPLSDTPGGPWKVYGVARRPRPTWNADHPIDYIQCDVSDAEDTRSKLSPLTDVTHVFYVTWTNRESESENCEANGSMLRNVLQAIIPYAPNLRHVCLQTGTKHYLGPFTNVDGPRHDPPFTEDMPRLQIQNFYYTQEDILFEEIKKIETVTWSIHRPNMIFGFSPYSLMNIVGTLCVYAAICKHEGSPLLFPGSKKAWEGFMTASDADLIAEQQIWAAVDPYAKNEAFNCNNADIFKWKHLWKILAEQFGIEEYGFEEGKNLGLVEMMKGKERVWEEMVKENQLQEKKLEEVGVWWFADVILGVEGMIDSMNKSKEYGFLGFRNSNNSFISWIDKYKAFKIVP
As to B4, the Michaelis-Menten constant (Km) in “purified protein [1]” was found to be 6.0 ± 2.5 µM. Moreover, in “purified protein [5]”, the Michaelis constant (Km) is 41.8 ± 2.75 µM, the kcat was found to be 0.155 ± 0.004 s⁻¹ and the catalytic efficiency (kcat/Km) was determined as 3710 M⁻¹ s⁻¹.
